Source: patent US10100114B2, “Antibodies specific for TROP-2 and their uses” (RINAT NEUROSCIENCE CORP., priority 2011, dated 2018)

Legend:
Colo205 xenograft = test: In vivo efficacy of Trop-2 ADCs, colorectal tumor Colo205 xenograft model; set-up: species or system nu/nu mice; settings: single dose of 6 mg/kg, tail vein; FIG. 10
Description: In vivo efficacy study of Trop-2 ADCs was performed with target-expressing colo205 xenograft model. Three millions of colo205 colon cancer cells were implanted subcutaneously into 5-8 weeks old nu/nu mice until the tumor sizes reached ˜300 mm^3. […] Tumor volume is measured once a week by a Caliper device and calculated with the following formula: Tumor volume=(length×width^2)/2. Studies were terminated before their tumor volumes reached 2000 mm^3.

[1] = system: SW620 cells (Trop-2 non-expressing); test: Cytotoxicity of ADCs (CellTiter-Glo), SW620; type: cell-based; settings: Table 13; SW620, Trop2 expression −; 96 hours; concentration of total Ab
Description: Target expressing (A431, BxPC3, CAPAN-2 and Colo205) or non-expressing (SW620) cells were seeded on white walled clear bottom plates at 2000 cells/well for 24 hours before treatment. Cells were treated with 4 fold serially diluted antibody-drug conjugates in triplicates. Cell viability was determined by CellTiter-Glo® Luminescent Cell Viability Assay 96 (Promega, Madison Wis.) 96 hours after treatment. Relative cell viability was determined as percentage of untreated control. IC50 was calculated by Prism software.
2-methylalanyl-N-[(3R,4S,5S)-3-methoxy-1-{(2S)-2-[(1R,2R)-1-methoxy-2-methyl-3-oxo-3-{[(1S)-2-phenyl-1-(1,3-thiazol-2-yl)ethyl]amino}propyl]pyrrolidin-1-yl}-5-methyl-1-oxoheptan-4-yl]-N-methyl-L-valinamide is a novel auristatin, as described in U.S. Application Nos. 61/561,255 and 61/676,423. Method of conjugating Trop-2 antibodies using transglutaminase tags is described in Example 9. Target expressing or non-expressing (SW620) cells were seeded on white walled clear bottom plates at 2000 (A431, BxPC3, NCI-H292, NCI-H1650, MDA-MB-468 and SW620), 2500 (Calu-3) or 3000 (OVCAR3 and SKBR3) cells per well for 24 hours before treatment. Cells were treated with 4 fold serially diluted antibody-drug conjugates in triplicates. Cell viability was determined by CellTiter-Glo® Luminescent Cell Viability Assay 96 (Promega, Madison, Wis.) 96 hours after treatment. Relative cell viability was determined as percentage of untreated control. IC50 was calculated by GraphPad Prism 5 software and expressed as concentration (nM) of total Ab.

SW620 (Trop-2 −) cells = test: Flow cytometry binding, SW620 cells; type: cell-based; settings: 1 ug antibody
Description: For A431 cell staining, 200,000 cells were incubated with 0.5 ug antibody in 100 uL binding buffer (PBS (Phosphate Buffered Saline)+0.5% BSA (Bovine Serum Albumin)), followed by incubation with Dylight488-conjugated goat anti-human (Fab′)2-specific secondary antibody from Jackson immunoresearch Laboratories (West Grove, Pa.). For Colo205 and SW620 cells, 300,000 cells were used with 1 ug of primary antibody, followed by AlexaFluor 647 anti-human (Fab′)2-specific secondary antibody from Jackson immunoresearch Laboratories (West Grove, Pa.).
Similar to Example 7a), binding of chimeric mouse and humanized anti-Trop-2 6G11 antibodies (expressed in human IgG1 subtype) were assessed on Trop-2 expressing (A431 and Colo205) and non-expressing (SW620) cells by flow cytometry. 300,000 cells were used with 1 ug of primary antibody, followed by AlexaFluor 647 anti-human (Fab′)2-specific secondary antibody.

human Trop-2-hFc = molecular target: T1, human Trop-2-hFc (Homo sapiens, UniProt P09758); test: Biacore SPR affinity of chimeric and humanized 7E6 Fab, human Trop-2; type: binding; settings: recombinant Fab fragments injected over captured human Trop-2-hFc
T1 construct: Monomeric Trop-2 extracellular domain prepared from papain digestion of Trop-2-Fc fusion protein
T1 sequence (P09758 27-274 limits assumed): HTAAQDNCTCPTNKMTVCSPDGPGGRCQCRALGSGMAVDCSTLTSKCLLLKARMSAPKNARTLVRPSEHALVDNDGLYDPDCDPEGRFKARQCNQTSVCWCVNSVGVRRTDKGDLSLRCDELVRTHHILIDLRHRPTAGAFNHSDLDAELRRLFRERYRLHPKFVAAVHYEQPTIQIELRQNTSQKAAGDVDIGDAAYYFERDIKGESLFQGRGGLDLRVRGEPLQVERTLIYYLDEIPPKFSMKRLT
Description: (§1) The human Trop-2-hFc or cynomolgus monkey Trop-2-hFc proteins were captured on the CM5 EDA chip 37 sensor surface coupled with anti-human Fc.

[2] = system: cynomolgus monkey Trop-2-hFc; test: Biacore SPR affinity of chimeric and humanized 7E6 Fab, cynomolgus Trop-2; type: binding; settings: recombinant Fab fragments injected over captured cynomolgus monkey Trop-2-hFc
Description: as §1

human Trop2-ECD = molecular target: T2, human Trop2-ECD (Homo sapiens, UniProt P09758); test: Proteon XPR36 SPR of Fab/human Trop2-ECD interactions; type: binding; settings: amine-coupled Fab; monovalent human Trop2-ECD 6, 30 and 150 nM; 25° C., pH 7.4
T2 sequence (P09758 27-274 limits assumed): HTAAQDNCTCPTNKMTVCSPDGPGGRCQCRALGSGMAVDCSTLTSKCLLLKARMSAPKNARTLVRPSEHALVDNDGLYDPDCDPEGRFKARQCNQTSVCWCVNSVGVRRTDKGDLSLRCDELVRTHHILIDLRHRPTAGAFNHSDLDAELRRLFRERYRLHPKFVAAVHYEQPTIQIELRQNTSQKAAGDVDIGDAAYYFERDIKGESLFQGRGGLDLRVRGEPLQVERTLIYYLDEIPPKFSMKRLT
Description: Analysis of Fab/human Trop2-ECD (Extracellular Domain) interactions was performed using a Bio-Rad Proteon XPR36 Surface Plasmon Resonance (SPR) biosensor (Bio-Rad, Hercules, Calif.) equipped with a GLC sensor chip. The assay temperature was 25° C., and the assay buffer was 10 mM Sodium Phosphate, 150 mM NaCl, 0.05% Tween-20, pH 7.4. An array of amine-coupled Fabs was prepared using the methodology described in Abdiche et al. (Anal. Biochem., 411: 139-151 (2011)). In each analysis cycle, monovalent human Trop2-ECD antigen was flowed at 30 μL/min over the immobilized Fabs for 3 minutes followed by a buffer wash for 15 minutes to monitor dissociation of the Fab/Trop2 complex. The sensor surface was regenerated between analysis cycles, using three 18-second injections of a 2:1 mixture (by volume) of Pierce IgG Elution buffer:4 M NaCl (Pierce, Rockford, Ill.). Binding and regeneration cycles were repeated at human Trop2-ECD concentrations of 6, 30 and 150 nM. The resulting data were fit to a 1:1 Langmuir binding model using the Proteon evaluation software.

huTrop-2 = molecular target: T3, huTrop-2 (Homo sapiens, UniProt P09758); test: Biacore SPR affinity of anti-Trop-2 mouse antibodies; type: binding; settings: mouse IgG captured by anti-mouse IgG; monomeric Trop-2 extracellular domain as analyte
T3 construct: Monomeric Trop-2 extracellular domain prepared from papain digestion of Trop-2-Fc fusion protein; Fc (cleaved yes); made in house
T3 sequence (P09758 27-274 limits assumed): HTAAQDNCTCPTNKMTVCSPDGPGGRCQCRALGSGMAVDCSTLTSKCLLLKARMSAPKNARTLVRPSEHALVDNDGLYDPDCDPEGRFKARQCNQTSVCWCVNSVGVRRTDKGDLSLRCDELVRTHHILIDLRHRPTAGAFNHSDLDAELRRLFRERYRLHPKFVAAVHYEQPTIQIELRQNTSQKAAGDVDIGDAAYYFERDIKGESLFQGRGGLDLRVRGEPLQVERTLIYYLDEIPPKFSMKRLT
Description: The affinities of anti-Trop-2 mouse antibodies generated from hybridomas were measured on a surface plasmon resonance Biacore™ 2000 or 3000 biosensor equipped with a research-grade CM5 sensor chip (Biacore™ AB, Uppsala, Sweden—now GE Healthcare). Anti-mouse IgG was first amine coupled to the CM5 sensor surface. Various anti-Trop-2 mouse IgGs were then captured by anti-mouse IgG. Monomeric Trop-2 extracellular domain prepared from papain digestion of Trop-2-Fc fusion protein was then injected as the analyte at 3 fold dilution series. […]

A431 xenograft = test: In vivo efficacy of anti-Trop-2 mouse IgGs, A431 xenograft model; set-up: species or system nu/nu mice; settings: 20 mg/kg once a week, 3 doses
Description: In vivo efficacy studies of anti-Trop-2 mouse IgGs were performed with target-expressing A431 xenograft model. Two million A431 epidermoid cancer cells were implanted subcutaneously into 5-8 weeks old nu/nu mice until the tumor sizes reached around 100 mm^3. Animals were randomized by tumor sizes and dosing was done through bolus tail vein injection. Anti-Trop-2 antibodies were expressed as recombinant mouse IgG2a antibodies from 293F transient expression. […] Tumor volume was measured twice a week by a caliper device and calculated with the following formula: Tumor volume=(length×width^2)/2. Studies were terminated before tumor volumes reached 2000 mm^3. TGI (% tumor growth inhibition) was determined as [1-tumor sizes (treatment group)/tumor size (control group)]×100.

human Trop-1 = molecular target: T4, human Trop-1 (Homo sapiens, UniProt P16422, M115T); test: Binding to human Trop-1; settings: recombinant mouse IgG2a
T4 sequence (P16422 24-314 M115T): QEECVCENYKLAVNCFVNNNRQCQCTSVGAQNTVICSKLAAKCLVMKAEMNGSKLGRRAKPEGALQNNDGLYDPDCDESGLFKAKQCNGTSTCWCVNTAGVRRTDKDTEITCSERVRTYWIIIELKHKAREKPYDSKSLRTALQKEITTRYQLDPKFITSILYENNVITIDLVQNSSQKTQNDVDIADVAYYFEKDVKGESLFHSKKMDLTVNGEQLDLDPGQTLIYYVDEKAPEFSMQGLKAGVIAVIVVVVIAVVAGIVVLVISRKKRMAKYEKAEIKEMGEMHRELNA

[3] = system: human Trop-2 domains swapped with Trop-1 (EpCAM) or mouse Trop-2 equivalent regions; test: Domain mapping by domain swapping (Biacore); type: binding; settings: for Binding to Trop-2 domain hybrid, domain 1: domain 1 replaced; for Binding to Trop-2 domain hybrid, domain 2: domain 2 replaced; for Binding to Trop-2 domain hybrid, domain 3: domain 3 replaced; for Binding to Trop-2 domain hybrid, domain 4: domain 4 replaced
Description: Domain mapping was done by swapping the Trop-2 extracellular domains with either Trop-1 (EpCAM) or mouse Trop-2 equivalent regions. […] These hybrid proteins were expressed as human Fc fusion proteins in 293F cells. Binding of anti-Trop-2 antibodies to these domain hybrids were determined by Biacore. […] Table 5. Definition of different domains of Trop-2 can be found, e.g., in Chong et al., J. Biol. Chem. 276(8):5804-13, 2001.

mouse Trop-2 = molecular target: T5, mouse Trop-2 (Mus musculus, UniProt Q8BGV3); test: Binding to mouse Trop-2; settings: recombinant mouse IgG2a
T5 sequence (Q8BGV3 25-317): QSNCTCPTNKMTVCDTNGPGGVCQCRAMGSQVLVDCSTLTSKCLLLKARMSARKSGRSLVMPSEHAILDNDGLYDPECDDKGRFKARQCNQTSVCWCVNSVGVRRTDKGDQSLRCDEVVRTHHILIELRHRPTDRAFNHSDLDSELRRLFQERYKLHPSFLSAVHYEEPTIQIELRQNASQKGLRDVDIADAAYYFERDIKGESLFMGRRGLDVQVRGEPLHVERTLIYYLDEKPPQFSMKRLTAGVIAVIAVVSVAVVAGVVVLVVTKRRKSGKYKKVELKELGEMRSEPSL

B1: h7E6SVG-LCQ03/K222R-vc0101: h7E6SVG K222R with light chain LCQ03 tag (SEQ ID NO: 78) conjugated with AcLys-vc-PABC-0101 (conjugate)
VH: QVQLQESGPGLVKPSETLSLTCTVSGGSISSYGVHWIRQPPGKGLEWIGVIWTSGVTDYNSALMGRVTISVDTSKNQFSLKLSSVTAADTAVYYCARDGDYDRYTMDYWGQGTLVTVSS
VL: DIVMTQSPDSLAVSLGERATINCRASKSVSTSGYSYMHWYQQKPGQPPKLLIYLASNLESGVPDRFSGSGSGTDFTLTISSLQAEDVAVYYCQHSRELPYTFGQGTKLEIK
tumor response, Colo205 xenograft (Colo205 xenograft): tumor regression | IC50 [1]: > 267 nM

B2: h7E6_SVG: humanized anti-Trop-2 antibody, VL SEQ ID NO: 3, VH SEQ ID NO: 5 (antibody, V domains shown)
VH: QVQLQESGPGLVKPSETLSLTCTVSGGSISSYGVHWIRQPPGKGLEWIGVIWTSGVTDYNSALMGRVTISVDTSKNQFSLKLSSVTAADTAVYYCARDGDYDRYTMDYWGQGTLVTVSS
VL: DIVMTQSPDSLAVSLGERATINCRASKSVSTSGYSYMHWYQQKPGQPPKLLIYLASNLESGVPDRFSGSGSGTDFTLTISSLQAEDVAVYYCQHSRELPYTFGQGTKLEIK
% positive (SW620 (Trop-2 −) cells; Table 10, 300,000 cells): 2.4% | MFI (SW620 (Trop-2 −) cells; Table 10, 300,000 cells): 139 | ka (human Trop-2-hFc): 97600 M⁻¹ s⁻¹ | kd (human Trop-2-hFc): 0.000435 s⁻¹ | ka [2]: 265000 M⁻¹ s⁻¹ | kd [2]: 0.00189 s⁻¹ | ka (human Trop2-ECD): 170000 M⁻¹ s⁻¹ | kd (human Trop2-ECD): 0.00069 s⁻¹

B3: 6G11: anti-Trop-2 mouse antibody, VL SEQ ID NO: 8, VH SEQ ID NO: 9; also used as chimeric human IgG1 (antibody, V domains shown)
VH: QVQLQQPGAELVRPGASVKLSCKASGYTFTSYWINWVKQRPGHGLEWIGNIYPSDSYSNYNQKFKDKATLTVDKSSSTAYMQVSSPTSEDSAVYYCTYGSSFDYWGQGTTVTVSS
VL: DILLTQSPAILSVSPGERVSFSCRASQTIGTSIHWYQQRTNGSPRLLIKYASESISGIPSRFSGSGSGTDFTLSINSVESEDIADYYCQQSNSWPFTFGSGTKLEIK
ka (huTrop-2): 270000 M⁻¹ s⁻¹ | kd (huTrop-2): 0.0086 s⁻¹ | A431 xenograft tumor growth in vivo (A431 xenograft): inhibit A431 xenograft tumor growth | Mean tumor volume (mm3) on day 27 (A431 xenograft; Table 7C): 444.8 mm3 | TGI (Tumor growth inhibition) (A431 xenograft; Table 7C): 57% | binding to human Trop-1 (human Trop-1): do not bind | human Trop-2 domains bound ([3]; defined by loss or reduction in binding on domain swapping): domain 1 | Binding to Trop-2 domain hybrid, domain 1 ([3]; domain replacement hTrop1): + | Binding to Trop-2 domain hybrid, domain 2 ([3]; domain replacement hTrop1): − | Binding to Trop-2 domain hybrid, domain 3 ([3]; domain replacement hTrop1): − | Binding to Trop-2 domain hybrid, domain 4 ([3]; domain replacement hTrop1): − | Binding to Trop-2 domain hybrid, domain 1 ([3]; domain replacement mTrop-2): + | Binding to Trop-2 domain hybrid, domain 2 ([3]; domain replacement mTrop-2): − | Binding to Trop-2 domain hybrid, domain 3 ([3]; domain replacement mTrop-2): − | Binding to Trop-2 domain hybrid, domain 4 ([3]; domain replacement mTrop-2): − | % positive (SW620 (Trop-2 −) cells; Table 11, 300,000 cells): 2.5% | MFI (SW620 (Trop-2 −) cells; Table 11, 300,000 cells): 134 | binding to mouse Trop-2 (mouse Trop-2): do not bind
